Blank lines part the entries; values can stand above or below the molecule they belong to.
Columns and labels:
[1] = biological target: hY4R-Nluc(intraECL2) (human) (UniProt P50391)
[2] = biological target: 5-TAMRA-[K18,Nle17,30]hPP (2) (Homo sapiens) (UniProt P01298); details: cited from earlier work
[3] = biological target: Sulfo-Cy5-[K4]hPP (Homo sapiens) (UniProt P01298); details: cited from earlier work
hY5R = biological target: T1, hY5R (Homo sapiens, UniProt Q15761); test: Y5R radioligand competition binding, whole HEC-1B-hY5R cells, [3H]propionyl-pNPY; details: [3H]propionyl-pNPY c = 5 nM, read-out: pKi ± SEM hY5R (converted)
T1 construct: expressed in transfected cells; host or cells: HEC-1B (human endometrial cancer)
T1 sequence (Q15761 1-445): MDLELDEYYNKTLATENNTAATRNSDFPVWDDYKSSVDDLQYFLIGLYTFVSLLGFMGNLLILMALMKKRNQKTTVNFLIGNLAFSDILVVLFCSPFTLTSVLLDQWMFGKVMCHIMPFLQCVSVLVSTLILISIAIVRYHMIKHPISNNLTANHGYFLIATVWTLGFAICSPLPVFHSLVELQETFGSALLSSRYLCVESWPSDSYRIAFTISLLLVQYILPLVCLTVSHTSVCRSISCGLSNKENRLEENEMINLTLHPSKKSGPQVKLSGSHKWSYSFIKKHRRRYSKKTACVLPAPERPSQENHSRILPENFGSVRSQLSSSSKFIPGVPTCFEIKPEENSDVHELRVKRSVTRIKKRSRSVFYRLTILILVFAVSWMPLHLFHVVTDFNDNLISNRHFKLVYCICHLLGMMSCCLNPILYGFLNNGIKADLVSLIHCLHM
Description: (§1) All radioligand binding assays were performed at intact Y receptor expressing cells at 23 ± 2 °C.
(§2) (logarithmic form in the case of pKi values).

hY2R = biological target: T2, hY2R (Homo sapiens, UniProt P49146); test: Y2R radioligand competition binding, whole CHO-hY2R cells, [3H]propionyl-pNPY; details: read-out: pKi ± SEM hY2R (converted)
T2 construct: host or cells: CHO
T2 sequence (P49146 1-381): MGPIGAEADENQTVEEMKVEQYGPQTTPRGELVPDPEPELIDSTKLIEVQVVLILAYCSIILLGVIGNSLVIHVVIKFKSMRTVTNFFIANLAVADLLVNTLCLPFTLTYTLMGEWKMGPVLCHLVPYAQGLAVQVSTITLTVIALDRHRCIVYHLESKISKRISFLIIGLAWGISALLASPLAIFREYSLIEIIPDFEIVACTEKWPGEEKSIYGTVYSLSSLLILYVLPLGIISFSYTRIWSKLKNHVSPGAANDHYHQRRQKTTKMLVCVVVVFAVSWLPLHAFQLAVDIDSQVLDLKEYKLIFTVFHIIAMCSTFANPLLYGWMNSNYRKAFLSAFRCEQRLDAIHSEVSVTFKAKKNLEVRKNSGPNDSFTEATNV
Description: as §1

Y4R = Y4R (Homo sapiens, UniProt P50391); test: Y4R miniGsi recruitment assay (HEK293T-NlucN-mGsi/Y4R-NlucC cells); type: cell-based; set-up: expressed in transfected cells; host or cells: HEK293T; details: read-out: miniGsi recruitment Emax ± SEM; also: relative to 1 µM hPP (100%)
Description: Furimazine was used as nanoluciferase substrate. The original stock was diluted 1:1000 in L15-HEPES to obtain the feed solution for the assay. Data analysis was performed based on the areas under the curves (time window: 45 min starting with the agonist addition) using GraphPad Prism 5. […] Efficacies Emax correspond to the upper plateaus of the normalized concentration–response curves.

hY1R = biological target: T3, hY1R (Homo sapiens, UniProt P25929); test: Y1R radioligand competition binding, whole SK-N-MC cells, [3H]UR-MK299; details: SK-N-MC neuroblastoma cells, [3H]UR-MK299 c = […]; read-out: pKi ± SEM hY1R (converted)
T3 construct: host or cells: SK-N-MC neuroblastoma cells
T3 sequence (P25929 1-384): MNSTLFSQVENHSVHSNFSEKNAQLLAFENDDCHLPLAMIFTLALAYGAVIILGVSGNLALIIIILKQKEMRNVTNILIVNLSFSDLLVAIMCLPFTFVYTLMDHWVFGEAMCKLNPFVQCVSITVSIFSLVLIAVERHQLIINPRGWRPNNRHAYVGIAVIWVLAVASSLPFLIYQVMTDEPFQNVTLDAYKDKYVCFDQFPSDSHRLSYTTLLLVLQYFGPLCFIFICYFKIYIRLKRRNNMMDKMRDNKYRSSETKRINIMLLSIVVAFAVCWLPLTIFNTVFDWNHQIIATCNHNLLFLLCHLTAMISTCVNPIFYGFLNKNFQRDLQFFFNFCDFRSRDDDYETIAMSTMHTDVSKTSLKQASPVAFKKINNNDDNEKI
Description: as §1
Competition binding assays at Y1R-expressing SK-N-MC neuroblastoma cells were performed as previously described using [^3H]UR-MK299 as radioligand (concentration: 0.15 nM).[33] […] (logarithmic form in the case of pKi values).

hY4R [4] = biological target: T4, hY4R (Homo sapiens, UniProt P50391); test: Y4R radioligand competition binding, whole CHO-hY4R-Gqi5-mtAEQ cells, [3H]UR-KK200; set-up: expressed in transfected cells; host or cells: CHO (co-expressing Gqi5 and mitochondrially targeted aequorin); details: [3H]UR-KK200 c = 1 nM, read-out: pKi ± SEM hY4R (converted)
Description: as §1, §2

hY4R [5] = biological target: T4, hY4R; test: Y4R Ca2+ aequorin assay (CHO-hY4R-Gqi5-mtAEQ cells); type: cell-based; set-up: expressed in transfected cells; host or cells: CHO (co-expressing Gqi5 and mitochondrially targeted aequorin)
Description: The assay was performed with live CHO-hY4R-Gqi5-mtAEQ cells as previously described (used buffer: buffer III). Measurements were carried out on a Tecan Infinite Lumi plate reader. Data analysis was performed as reported using GraphPad Prism 5 for the calculation of the area under the curve. […] Efficacies Emax correspond to the upper plateaus of the normalized concentration–response curves.

[6] = biological target: T5, human neuropeptide Y Y2 receptor (human, UniProt P49146 1-381); test: radioligand binding; competition with [^3H]propionyl-pNPY (0.5 nM) at intact CHO-hY2R cells, 23 ± 2 °C, buffer I (sodium-free); details: one partner purified
T5 construct: also called hY2R; source: CHO-hY2R cells (from PerkinElmer), intact cells
T5 sequence (looked up): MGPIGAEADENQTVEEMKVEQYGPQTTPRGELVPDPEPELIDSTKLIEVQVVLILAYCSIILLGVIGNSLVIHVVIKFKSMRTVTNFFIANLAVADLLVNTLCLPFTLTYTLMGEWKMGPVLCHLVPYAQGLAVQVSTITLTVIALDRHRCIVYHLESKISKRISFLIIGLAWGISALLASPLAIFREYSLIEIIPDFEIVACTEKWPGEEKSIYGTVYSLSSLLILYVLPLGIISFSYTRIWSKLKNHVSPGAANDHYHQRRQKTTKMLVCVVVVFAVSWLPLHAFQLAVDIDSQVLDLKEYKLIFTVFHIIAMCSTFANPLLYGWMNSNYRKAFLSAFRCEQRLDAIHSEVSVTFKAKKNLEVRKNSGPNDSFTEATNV

[7] = biological target: human neuropeptide Y Y1 receptor (human) (UniProt P25929); test: radioligand binding; competition with [^3H]UR-MK299 ([…]) at intact SK-N-MC cells, 23 ± 2 °C, buffer II (150 mM NaCl)
[8] = biological target: human neuropeptide Y Y5 receptor (human) (UniProt Q15761); test: radioligand binding; competition with [^3H]propionyl-pNPY (5 nM) at intact HEC-1B-hY5R cells, 23 ± 2 °C, buffer II (150 mM NaCl)
[9] = biological target: T6, human neuropeptide Y Y4 receptor (wild-type, CHO-hY4R-Gqi5-mtAEQ cells) (human, UniProt P50391 1-375); test: cell-based or functional assay
[10] = biological target: T6, human neuropeptide Y Y4 receptor …; test: radioligand binding; competition with [^3H]UR-KK200 (1.0 nM) at intact CHO-hY4R-Gqi5-mtAEQ cells, 23 ± 2 °C, buffer I (sodium-free); details: one partner purified

Molecule: human pancreatic polypeptide (from UniProt P01298 30-65)
- pKi [1]: 7.7

Molecule: Y4 receptor (from UniProt P50391)
- Kd [2]: 26 nM
- Kd [3]: 5.6 nM

Other lines, results leading:

- Ki (hY5R): > 1000 nM
- Ki (hY2R): > 1000 nM
- Emax (Y4R): 43 ± 1%
- Ki (hY1R): > 1000 nM
- Ki (hY4R [4]): 0.603 nM
- EC50 (hY4R [5]; CHO-hY4R-Gqi5-mtAEQ cells, agonist mode, read-out: Ca2+-aequorin pEC50 ± SEM (converted)): 56.2 nM
- Emax (hY4R [5]; read-out: Ca2+-aequorin Emax ± SEM): 64 ± 2%
Molecule: Cc1cc(/C=C/C=C/c2ccc(N(C)C)cc2)cc(C)[n+]1CCCn1cc(CCCCNC(=O)N=C(N)NCCC[C@@H]2NC(=O)CCC(=O)NCCCCNC(=O)N=C(N)NCCC[C@@H](C(=O)N[C@@H](CC(C)C)C(=O)N[C@@H](CCCNC(=N)N)C(=O)N[C@@H](Cc3ccc(O)cc3)C(N)=O)NC(=O)[C@H](Cc3ccc(O)cc3)NC2=O)nn1 [Compound 19]

- pKi [6]: < 5
- pKi [7]: < 5
- pKi [8]: < 5.5
- EC50, miniGsi recruitment assay (HEK293T-NlucN-mGsi/Y4R-NlucC cells) [9]: 73 nM
- Ki [10]: 0.42 nM
B1: cyclic peptide 11 (alkyne-functionalized precursor peptide) (peptide)
peptide: RYRLRY
modifications: N^α-succinyl; N^ω-[hex-5-ynylaminocarbonyl]-Arg at position 1; N^ω-[(aminobutyl)aminocarbonyl]-Arg at position 3; cyclized via the succinyl carboxylic group and the primary amino group of the carbamoylated arginine in position 3; C-terminal amide
notes: printed in three-letter code for the linear precursor 10: N^α-succinyl-N^ω[hex-5-ynylaminocarbonyl]-Arg-Tyr-N^ω-[(aminobutyl)aminocarbonyl]Arg-Leu-Arg-Tyr-amide; 11 is its cyclized form; source: synthetic peptide (SPPS of linear peptide 10, cyclization in solution, preparative HPLC)
